Here are results for seven molecules from article PMC13038412, “Hetero-oligomerization drives structural plasticity of eukaryotic peroxiredoxins” (Nature Chemical Biology, 2026).

The target in data set [1] is roGFP2-LiPrx1 (L. infantum). The experiment in a line: native gel or EMSA; clear native PAGE of lysates from Δtsa1Δtsa2 yeast coexpressing a roGFP2-peroxiredoxin fusion with an empty vector or an unfused peroxiredoxin; imaged for GFP fluorescence.
In data set [2] the target is T1, His6-Tsa2-EPEA (S. cerevisiae).
T1 sequence (Q04120 1-196, looked up): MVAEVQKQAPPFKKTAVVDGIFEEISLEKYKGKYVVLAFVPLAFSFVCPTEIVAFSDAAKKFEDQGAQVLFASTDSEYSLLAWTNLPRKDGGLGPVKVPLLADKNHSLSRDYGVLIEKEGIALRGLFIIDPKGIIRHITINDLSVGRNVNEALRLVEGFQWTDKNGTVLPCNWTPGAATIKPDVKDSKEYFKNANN
Nature of the data set: negative-stain EM; 0.02 mg/ml purified sample in 10 mM HEPES/NaOH pH 8, 137 mM NaCl, 2 mM KCl; 2% uranyl acetate; hetero-oligomer: the 0.88 mol/mol fraction.

The target is the same in data set [3]. The experiment in a line: MALDI-TOF MS of disulfide-linked dimers; purified homo-oligomers and three tandem-purified hetero-oligomer fractions in 0.1% TFA, DHAP matrix, linear positive mode; dimers reducible with DTT.
In data set [4] the target is roGFP2-AtBAS1B (A. thaliana). The experiment in a line: native gel or EMSA; clear native PAGE of lysates from Δtsa1Δtsa2 yeast coexpressing a roGFP2-peroxiredoxin fusion with an empty vector or an unfused peroxiredoxin; imaged for GFP fluorescence. For orientation: A gel shift assay detects complexes by their altered migration in electrophoresis.
Data set [5] deals with the molecule itself. Nature of the data set: mass photometry; 5 µM purified samples incubated 15 min at 20, 30, 40 or 45 °C, diluted 25x into 10 mM HEPES/NaOH pH 8, 137 mM NaCl, 2 mM KCl; Refeyn OneMP; disulfide-linked oxidation form.
Data set [6] concerns the molecule itself. The experiment in a line: negative-stain EM; 0.02 mg/ml purified sample in 10 mM HEPES/NaOH pH 8, 137 mM NaCl, 2 mM KCl; 2% uranyl acetate; hetero-oligomer: the 0.88 mol/mol fraction.
The target in the next data set is T2, His6-Tsa2 (S. cerevisiae, UniProt Q04120 1-196).
T2 construct: Tsa2, Prx1/AhpC-type peroxiredoxin of Saccharomyces cerevisiae; TSA2 from pET15b/His6-TSA2; calculated mass of His6-Tsa2 23.8 kDa; also called His6-tagged Tsa2; His-Tsa2; source: E. coli SHuffle T7 Express, purified (Ni-NTA) from pET15b; or coexpressed with Strep-Tsa1 / Strep-Tsa1ΔCR from pCOLADuet and tandem purified (Ni-NTA, StrepTactin); not shown: His6, N-terminal, kept
T2 sequence (looked up): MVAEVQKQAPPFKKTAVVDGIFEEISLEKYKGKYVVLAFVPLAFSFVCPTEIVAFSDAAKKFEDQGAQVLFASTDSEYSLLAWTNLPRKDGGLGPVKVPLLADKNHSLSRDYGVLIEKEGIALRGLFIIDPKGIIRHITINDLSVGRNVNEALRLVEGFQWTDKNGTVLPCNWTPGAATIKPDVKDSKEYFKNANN
Nature of the data set: pull-down; both genes coexpressed from one pCOLADuet plasmid in E. coli; tandem-affinity purification Ni-NTA then StrepTactin, or vice versa; eluates on reducing SDS-PAGE, western blot (semiquantitative, calibrated with individually purified proteins). Conditions: partners not purified.

Data set [7] concerns the molecule itself. Nature of the data set: MALDI-TOF MS of disulfide-linked dimers; purified homo-oligomers and three tandem-purified hetero-oligomer fractions in 0.1% TFA, DHAP matrix, linear positive mode; dimers reducible with DTT.
Data set [8] concerns the molecule itself. Nature of the data set: native gel or EMSA; clear native PAGE (3-12%) of yeast lysates, imaged for GFP fluorescence; roGFP2 fusions expressed from the genomic loci; cells untreated or treated with 1 mM H2O2 for the indicated times; lysis with 20 mM NEM.
Data set [9] deals with the molecule itself. The experiment in a line: native gel or EMSA; clear native PAGE of lysates from Δtsa1Δtsa2 yeast coexpressing a roGFP2-peroxiredoxin fusion with an empty vector or an unfused peroxiredoxin; imaged for GFP fluorescence.

With roGFP2-LiPrx1 (enzyme), the stoichiometry N (in general, the number of molecules, sites or subunits per partner or assembly) in data set [1] was 10.
On to His6-Tsa2-EPEA (enzyme), for which the stoichiometry N in data set [2] was found to be 10; in [3], 2.
roGFP2-AtBAS1B (enzyme) displayed a stoichiometry N in data set [4] of 10.

B1: His6-GFP-TEV-Tsa2 (enzyme, S. cerevisiae, UniProt Q04120 1-196, looked up)
chain: MVAEVQKQAPPFKKTAVVDGIFEEISLEKYKGKYVVLAFVPLAFSFVCPTEIVAFSDAAKKFEDQGAQVLFASTDSEYSLLAWTNLPRKDGGLGPVKVPLLADKNHSLSRDYGVLIEKEGIALRGLFIIDPKGIIRHITINDLSVGRNVNEALRLVEGFQWTDKNGTVLPCNWTPGAATIKPDVKDSKEYFKNANN
notes: Tsa2 of Saccharomyces cerevisiae, behind His6, GFP and a TEV site; Probably made in E. coli (AhpC contamination was detected); also called Tsa2 with an N-terminal GFP tag; not shown: His6, N-terminal, kept; GFP, N-terminal, kept
As to B1, in [5], the binding result is “binds”.

B2: Strep-Tsa1 (enzyme, S. cerevisiae, UniProt P34760 1-196, looked up)
chain: MVAQVQKQAPTFKKTAVVDGVFDEVSLDKYKGKYVVLAFIPLAFTFVCPTEIIAFSEAAKKFEEQGAQVLFASTDSEYSLLAWTNIPRKEGGLGPINIPLLADTNHSLSRDYGVLIEEEGVALRGLFIIDPKGVIRHITINDLPVGRNVDEALRLVEAFQWTDKNGTVLPCNWTPGAATIKPTVEDSKEYFEAANK
notes: Tsa1, Prx1/AhpC-type peroxiredoxin of Saccharomyces cerevisiae; TSA1 subcloned from pET15b/His-TSA1; calculated mass of Strep-Tsa1 22.9 kDa; Dimer-decamer equilibrium; also called Strep-tagged Tsa1; Tsa1 homo-oligomer; source: E. coli SHuffle T7 Express, purified (StrepTactin) from pET45b; or coexpressed with His6-Tsa2 / His6-Tsa2-EPEA from pCOLADuet-1 and tandem purified (Ni-NTA, StrepTactin); …
On to B2, for which the “stoichiometry N” value in [6] was 10; in the data set with His6-Tsa2, about 1 Strep-Tsa1 per His6-Tsa2; in [7], 2.

B3: roGFP2-Tsa1 (enzyme, S. cerevisiae, UniProt P34760 1-196, looked up)
chain: MVAQVQKQAPTFKKTAVVDGVFDEVSLDKYKGKYVVLAFIPLAFTFVCPTEIIAFSEAAKKFEEQGAQVLFASTDSEYSLLAWTNIPRKEGGLGPINIPLLADTNHSLSRDYGVLIEEEGVALRGLFIIDPKGVIRHITINDLPVGRNVDEALRLVEAFQWTDKNGTVLPCNWTPGAATIKPTVEDSKEYFEAANK
notes: Tsa1 of Saccharomyces cerevisiae, roGFP2-tagged version replacing TSA1 at its endogenous locus; source: S. cerevisiae, gene integrated at the TSA1 genomic locus under the native promoter, in lysate
B3: the “stoichiometry N” value in data set [8] was 2.

B4: roGFP2-AtBAS1A (enzyme, A. thaliana, UniProt Q96291 66-266, looked up)
chain: KAQADDLPLVGNKAPDFEAEAVFDQEFIKVKLSDYIGKKYVILFFYPLDFTFVCPTEITAFSDRHSEFEKLNTEVLGVSVDSVFSHLAWVQTDRKSGGLGDLNYPLISDVTKSISKSFGVLIHDQGIALRGLFIIDKEGVIQHSTINNLGIGRSVDETMRTLQALQYIQENPDEVCPAGWKPGEKSMKPDPKLSKEYFSAI
notes: AtBAS1A, Prx1/AhpC-type peroxiredoxin of the chloroplast stroma of Arabidopsis thaliana; source: Δtsa1Δtsa2 yeast, expressed from a plasmid, in lysate
With B4, the “stoichiometry N” value in data set [9] was 2.
